Earlier results on one substance are cited in paper PMC10364474.

Broadly, the Kd is the concentration at which binding is half-saturated.

The data set has as its target integrin α5β1 (Homo sapiens) (UniProt P08648).
Chain of UniProt P08648 (P08648 42-995, chain 1 of 2): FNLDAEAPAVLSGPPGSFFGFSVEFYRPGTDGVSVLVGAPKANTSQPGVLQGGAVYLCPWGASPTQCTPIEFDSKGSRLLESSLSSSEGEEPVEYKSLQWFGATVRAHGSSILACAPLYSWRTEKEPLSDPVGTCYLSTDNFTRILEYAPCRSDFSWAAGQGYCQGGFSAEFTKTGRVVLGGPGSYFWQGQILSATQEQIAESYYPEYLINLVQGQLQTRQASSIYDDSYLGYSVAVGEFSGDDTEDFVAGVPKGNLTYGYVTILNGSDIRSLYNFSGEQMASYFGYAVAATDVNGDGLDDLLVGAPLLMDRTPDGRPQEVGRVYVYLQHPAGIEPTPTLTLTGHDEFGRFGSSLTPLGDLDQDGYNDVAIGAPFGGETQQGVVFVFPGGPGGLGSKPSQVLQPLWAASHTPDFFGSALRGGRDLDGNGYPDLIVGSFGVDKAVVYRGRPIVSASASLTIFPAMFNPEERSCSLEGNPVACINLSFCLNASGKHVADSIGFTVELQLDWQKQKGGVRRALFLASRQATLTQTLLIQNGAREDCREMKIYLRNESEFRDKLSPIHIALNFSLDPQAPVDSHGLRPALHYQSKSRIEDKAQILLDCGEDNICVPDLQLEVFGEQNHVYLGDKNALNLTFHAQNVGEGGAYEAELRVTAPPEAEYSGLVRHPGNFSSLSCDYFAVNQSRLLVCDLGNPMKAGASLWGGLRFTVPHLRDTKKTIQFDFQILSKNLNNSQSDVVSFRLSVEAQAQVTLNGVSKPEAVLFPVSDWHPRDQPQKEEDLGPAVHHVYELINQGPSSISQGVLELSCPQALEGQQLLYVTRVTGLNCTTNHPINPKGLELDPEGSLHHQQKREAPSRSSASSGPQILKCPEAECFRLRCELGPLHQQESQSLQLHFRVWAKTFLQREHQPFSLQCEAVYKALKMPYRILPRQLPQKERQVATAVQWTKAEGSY
Chain of UniProt P08648 (P05556 21-728, chain 2 of 2, further chain): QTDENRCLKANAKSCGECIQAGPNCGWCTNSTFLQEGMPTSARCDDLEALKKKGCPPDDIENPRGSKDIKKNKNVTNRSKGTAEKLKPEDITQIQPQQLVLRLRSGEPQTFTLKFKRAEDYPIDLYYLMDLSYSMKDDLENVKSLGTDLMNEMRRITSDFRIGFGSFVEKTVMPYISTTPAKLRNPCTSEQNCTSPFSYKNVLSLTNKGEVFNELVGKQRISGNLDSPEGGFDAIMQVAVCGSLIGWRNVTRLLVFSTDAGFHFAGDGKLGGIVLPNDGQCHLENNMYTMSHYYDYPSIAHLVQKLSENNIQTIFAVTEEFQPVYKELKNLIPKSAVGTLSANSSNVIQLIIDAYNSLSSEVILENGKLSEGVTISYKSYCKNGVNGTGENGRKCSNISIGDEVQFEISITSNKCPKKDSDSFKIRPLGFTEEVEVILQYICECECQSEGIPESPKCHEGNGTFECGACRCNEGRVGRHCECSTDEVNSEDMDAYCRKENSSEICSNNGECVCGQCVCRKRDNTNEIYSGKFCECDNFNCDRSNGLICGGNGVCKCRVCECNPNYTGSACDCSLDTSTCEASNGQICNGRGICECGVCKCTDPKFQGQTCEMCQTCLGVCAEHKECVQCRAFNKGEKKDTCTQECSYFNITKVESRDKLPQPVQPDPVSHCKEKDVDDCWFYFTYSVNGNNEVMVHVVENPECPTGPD

Take “Fibrinogen alpha chain RGD 572-574 (from UniProt P02671)”: the Kd was 65 nM.
